Results on four molecules are retold here after publication PMC4794909, “The transcription factor scleraxis is a critical regulator of cardiac fibroblast phenotype”.

Sequences and labels used below:
T1: scleraxis (Scx) (UniProt Q6P6L3 1-207)
T1 sequence: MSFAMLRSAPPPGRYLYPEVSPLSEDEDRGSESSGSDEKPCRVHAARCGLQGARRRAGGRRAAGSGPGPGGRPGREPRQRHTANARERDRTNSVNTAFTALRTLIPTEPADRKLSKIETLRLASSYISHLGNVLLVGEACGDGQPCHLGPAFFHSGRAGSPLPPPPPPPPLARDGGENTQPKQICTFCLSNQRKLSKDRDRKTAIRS

B1: E box 2 (E2), αSMA promoter (dsDNA)
DNA 1: GTTTATCCCCATAAGCAGCTGAACTGCCTCCTGTTT
DNA 2: AAACAGGAGGCAGTTCAGCTGCTTATGGGGATAAAC
B2: E box 2 mutant (mE2) (dsDNA)
DNA 1: GTTTATCCCCATAAGCTGGTGAACTGCCTCCTGTTT
DNA 2: AAACAGGAGGCAGTTCACCAGCTTATGGGGATAAAC
B3: E box 1 (E1), αSMA promoter (dsDNA)
DNA 1: GTCTGGGCATTTGAGCAGTTGTTCTGAGGGCTCAGG
DNA 2: CCTGAGCCCTCAGAACAACTGCTCAAATGCCCAGAC
B4: E box 1 mutant (mE1) (dsDNA)
DNA 1: GTCTGGGCATTTGAGCCGATGTTCTGAGGGCTCAGG
DNA 2: CCTGAGCCCTCAGAACATCGGCTCAAATGCCCAGAC

This data set deals with T1, scleraxis (Scx). As to the kind of experiment: EMSA; LightShift Chemiluminescent EMSA Kit (Pierce) per manufacturer, as in ref. 18; 500x cold competition; buffer, salt, pH and temperature not given. The conditions noted are these: chain copies: 2; label: biotin; blunt. (In general: In EMSA bound probe runs differently from free probe, usually more slowly.)
As for B1, the binding result is “binds”.
Consider B2, for which the binding result is “no binding”.
As for B3, the binding result is “binds”.
The result for B4 reads “no binding”.
